Target: F-actin (filamentous actin) of the Actin Binding Protein Biochem Kit (BK013, Cytoskeleton) (UniProt P60709)
Assay: co-sedimentation; F-actin spin-down assay with the Actin Binding Protein Biochem Kit (BK013, Cytoskeleton), according to manufacturer instructions; ultracentrifugation, SDS-PAGE, Coomassie staining, signals quantified

**Q.** How did the percent detected in the pellet with F-actin turn out when “cyclin A2-GST (glutathione S-transferase) (from UniProt P20248 1-432) (natural protein)” was run?
**A.** Its percent detected in the pellet with F-actin is 37%.

From PMC4899731
